Source: US20230192801A1

Biological target: membrane-associated human IR-A (plasma membranes of BHK cells stably transfected with human IR-A) (human) (UniProt P06213)
Experiment: competition SPA, displacement of [125I-A14Y]-human insulin from membrane-associated human IR-A; affinity relative to human insulin standard

Row | hIRA mem (% rel to HI), relative binding affinity | Substance
1 | 35.4 % rel to HI | A9E, B3E, B27E, B28E, desB30 human insulin (ligand)
2 | 55.8 % rel to HI | A9E, B3E, B26E, desB30 human insulin (ligand)
